Holding throughout (assay): HRP/ABTS coupled H2O2 assay, A420, Lineweaver-Burk
Assay type in all cases: biochemical, Trametes cinnabarina
What all share (conditions): 50 mM sodium 2,2-dimethylsuccinate, pH 6, 30°C, O2 as co-substrate, HRP, 0.1 mM ABTS

Substrate in data set [1]: O=CC=O
The source says:
(§1) HRP/ABTS coupled H2O2 assay, A420, Lineweaver-Burk on PciGLOX2

Substrate in data set [2]: CC(=O)C=O
Description: as §1

Substrate in data set [3]: O=CC(=O)O
Description: as §1

Substrate in data set [4]: OCC(O)CO
Description: as §1

Substrate in data set [5]: O=CC=O
An excerpt:
(§2) HRP/ABTS coupled H2O2 assay, A420, Lineweaver-Burk on PciGLOX1
This is another data set of the same source.

Substrate in data set [6]: CC(=O)C=O
Description: as §2
The source holds these as a separate data set.

Substrate in data set [7]: O=CC(=O)O
Description: as §2
This is another data set of the same source.

From publication PMC4968546, “Heterologous Production and Characterization of Two Glyoxal Oxidases from Pycnoporus cinnabarinus” (Applied and Environmental Microbiology, 2016) come the findings set out here.

B1: PciGLOX2 (Trametes cinnabarina) (protein)
chain: APSTPTGWQFNLKAERSGIVALESIVVSPTLVVFFDRATNDPLQINNHSAWGALWNLETSTVRALDVLTNSFCASGALLSNGTMASIGGDPNGFPGNPAIHPGTQAIRLFEPCDSPTGEGCTLFEDPVTLHLLEKRWYPSSVRIFDGSLLIVGGMHEETPFYNTDPALSFEFFPPKESTPRPSEFLNRSLPANLFPRVFALPDGKVFMVANNQSIIYDIEANTERILPDIPNNVRVTNPIDGSAILLPLSPPDFVPEVLVCGGTQTDTIDPSLLTSQTPASSQCSRIRLDEEGIARGWEVEHMLEGRMMPELVHLPNGQVLIANGARTGFAAIASVSDPVGGSNADHAVLVPSLYTPDAPLGTRISNVGLPSSGIARVYHSSITLTPQGNFLIAGSNPNNNSSVTAGVKFPSEFRVQTLDPPFMFVERPKILSMPKKLAFGKSFTVPIAVPSTLAHPGAKVQVSLMDLGFSSHAFHSSARLVFMNAKISQDGKSLTFTTPPNGRVYPPGPATIFLTIDDVTSEGAWVMMGSGNPPPTLE
notes: secreted from Aspergillus niger D15#26; ORF 559 aa; N-terminus APST; N-glycosylated, 70 kDa (about 60 kDa deglycosylated)
As a reminder, the Km is the concentration of substrate that gives half-maximal velocity. In general, Vmax refers to the rate approached at saturating substrate. In general, kcat refers to the number of substrate molecules converted per active site and unit of time at saturation. What is called kcat/Km is the second-order rate constant that governs catalysis at low substrate concentration. As to B1, in data set [1], the Km was 2200 µM, the Vmax came to 15 µmol/min/mg, the kcat was found to be 1.4 s⁻¹ and the specificity constant (kcat/Km) is 636 M⁻¹ s⁻¹. Further, in data set [2], the Km was determined as 200 µM and the kcat is 1.4 s⁻¹. Also, in data set [3], the Km worked out at 100 µM, the Vmax was 17.9 µmol/min/mg, the kcat is 1.7 s⁻¹ and the specificity constant (kcat/Km) was determined as 17000 M⁻¹ s⁻¹. In data set [4], the Michaelis constant (Km) was 9400 µM, the maximum rate (Vmax) was determined as 6.42 µmol/min/mg, the kcat amounted to 0.6 s⁻¹ and the kcat/Km came to 63 M⁻¹ s⁻¹.

B2: PciGLOX1 (Trametes cinnabarina) (protein)
chain: APSAPGWRFDLKAERSGIVALESIVVSPTLVLWFDRASDDPLQINNHSAWGALWNLETSTVRPLNVLTNSFCASGALLSNGSMASVGGDPRGFPGNPAINPGNQAIRIFEPCASPTGDGCTVFEDPQTLHLLEDRWYPSSIRIFDGSLLIVGGTHVNENFYNLHPANSFEFFPPKESTPRPSAFLERSLPANLFPRIFALPDGKVFMVANNQSIIYDIEANTERILPDIPNNVRVTNPIDGSAILLPLTPPDYIPEVLVCGGTSTDPLDPSLLSSQTPATTQCSRIRLDEEGIAKGWQVEHMLEPRTMPELVHIPNGQILIANGARTGFAAIKQVQDPIGNSNSDHAVLVPSIYTPDAPLGQRISNAGMPSSGIARVYHSSITLTPQGNFLIAGSNPNGNTTVGPGVKFPSEFRVQTLDPPFMFVERPKILNTPEKLAFNKTFTVPISVPSTLASPGAKVQVSLMDLGFSSHAFHSSARLVFMDATISRDRRSLTFTTPPNGRVFPPGPATVFLTIDGVTSEGAWVMMGSGNSPPTLE
notes: secreted from Aspergillus niger D15#26; native 18-aa signal peptide … replaced by A. niger glucoamylase prepro (removed in processing); ORF 556 aa; N-terminus APSA; N-glycosylated, 70 kDa (about 60 kDa deglycosylated)
As for B2, in data set [5], the Km came to 13100 µM, the maximum rate (Vmax) turned out to be 85.3 µmol/min/mg, the turnover number (kcat) was 83 s⁻¹ and the kcat/Km was found to be 6340 M⁻¹ s⁻¹. In data set [6], the Km was 1300 µM, the Vmax was 77.3 µmol/min/mg, the turnover number (kcat) stood at 76 s⁻¹ and the kcat/Km turned out to be 58500 M⁻¹ s⁻¹. Further, in data set [7], the Km is 88 µM, the Vmax came out at 192 µmol/min/mg, the kcat came out at 188 s⁻¹ and the kcat/Km came to 2.14e+06 M⁻¹ s⁻¹.
